Data published in patent US20260209325A1 (SCHOLAR ROCK, published 2026).
Residue numbers refer to the chain shown, from its start.

B1: Ab141 (antibody, human IgG4 S228P, kappa, V domains shown)
VH: EVQLVESGGGLVQPGGSLRLSCAASGFTFSSYGMSWVRQAPGKGLELVASFTGSGGAYYPDSVKGRFTISRDNAKNSLYLQMNSLRAEDTAVYYCARDLLIRFLEWSHYYGMDVWGQGTTVTVSS
VL: DIVMTQSPLSLPVTPGEPASISCRSSQSLLHSSGHNFLHWYLQKPGQSPQLLIYEVSNRVSGVPDRFSGSGSGTDFTLKISRVEAEDVGVYYCMQQTQYPGTFGGGTKVEIKR
B2: Ab112 (antibody, human IgG4 S228P, kappa, V domains shown)
VH: QVQLVQSGAEVKKPGASVKVSCKVSGGTFGIYAIHWVRQAPGKGLEWMGGTIPVFGTAIYAQKFQGRVTMTEDTSTDTAYMELSSLKSEDTAVYYCASLTGIAAAGTHPARGGMDVWGQGTTVTVSS
VL: DIQMTQSPSSVSASVGDRVTITCRASPSISSYLAWYQQKPGKAPKLLIYAASRLQSGVPSRFSGSGSGTDFTLTISSLQPEDFANYYCQEYLSFPLTFGGGTKVEIKR
B3: Ab123 (antibody, human IgG4 S228P, kappa, V domains shown)
VH: EVQLVESGGGLVQPGGSLRLSCAASGFTFSKYDMSWVRQAPGKGLELVASISSSGGTRYYPDSVKGRFTISRDNAKNSLYLQMNSLRAEDTAVYYCAKDLWVASPGYGMDVWGQGTTVTVSS
VL: DIVMTQSPLSLPVTPGEPASISCRSSQSLLHSSGHNYLHWYLQKPGQSPQLLIYLGSIRAPGVPDRFSGSGSGTDFTLKISRVEAEDVGVYYCMQALLNPPTFGGGTKVEIKR
B4: Ab101 (antibody, human IgG4 S228P, kappa, V domains shown)
VH: EVQLVESGGGLVQPGGSLRLSCAASGSAFSSYGMSWVRQAPGKGLELVASINSNGGSTYYPDSVKGRFTISRDNAKNSLYLQMNSLRAEDTAVYYCARDLLVRFLEWSHYYGMDVWGQGTTVTVSS
VL: B1 VL with G101P
B5: Ab103 (antibody, human IgG4 S228P, kappa, V domains shown)
VH: B4 VH with S27Y, A28T, N52T, S53G, N54D, G55A, S57R, L100T
VL: B1 VL with G101P
B6: Ab107 (antibody, human IgG4 S228P, kappa, V domains shown)
VH: B4 VH with L100Q
VL: B1 VL with E55A, V56G, V60P, M94A, Q95H, Q96A, Y99L, G101H
B7: Ab108 (antibody, human IgG4 S228P, kappa, V domains shown)
VH: B4 VH with R103G, E106Q
VL: B1 VL with G101P
B8: Ab114 (antibody, human IgG4 S228P, kappa, V domains shown)
VH: QVQLVQSGAEVKKPGASVKVSCKVSGGTFRSYTIHWVRQAPGKGLEWMGGMNPSSGHTIYAQKFQGRVTMTEDTSTDTAYMELSSLKSEDTAVYYCARGLDYGEGYYYYGMDVWGQGTTVTVSS
VL: DIQMTQSPSSVSASVGDRVTITCRASQGISESLAWYQQKPGKAPKLLIYSASSLESGVPSRFSGSGSGTDFTLTISSLQPEDFANYYCQQGYSSPPYTFGGGTKVEIKR
B9: Ab115 (antibody, human IgG4 S228P, kappa, V domains shown)
VH: QVQLVQSGAEVKKPGASVKVSCKVSGYAFTNYNIHWVRQAPGKGLEWMGGINPRTGGTIYAQKFQGRVTMTEDTSTDTAYMELSSLKSEDTAVYYCAKDIYTGVAVAGSGMDYWGQGTLVTVSS
VL: DIQMTQSPSSVSASVGDRVTITCRASQGISTHLAWYQQKPGKAPKLLIYGASNLESGVPSRFSGSGSGTDFTLTISSLQPEDFANYYCQQANSFPWTFGGGTKVEIKR
B10: Ab124 (antibody, human IgG4 S228P, kappa, V domains shown)
VH: QVQLQESGPGLVKPSQTLSLTCTVSGGSISSSPYSWSWIRQPPGKGLEWIGYVDLAGSTDYNPSLKSRVTMSVDTSKNQFSLKVNSVTAADTAVYYCARALSSRSSEWLLDQYTMDVWGQGTTVTVSS
VL: EIVMTQSPATLSLSPGERATLSCRASQSIGINLAWYQQKPGQAPRLLIYGVSNRATGIPARFSGSGSGTDFTLTISSLEPEDFAVYYCQQYGTARLTFGGGTKVEIKR
B11: Ab128 (antibody, human IgG4 S228P, kappa, V domains shown)
VH: EVQLVESGGGLVQPGGSLRLSCTASGFTLSSYSMDWVRQAPGKGLEWVSYITGSGDTTYYADSVKGRFTISRDNAKNTLYLQMNSLRAEDTAVYYCARGFGWISGWAEDYFDYWGQGTLVTVSS
VL: DIQMTQSPSSLSASVGDRVTITCQASQSVYSYLNWYQQKPGKAPKLLIYGASRLEGGVPSRFSGSGSGTDFTFTISSLQPEDIATYYCQQHSTDQRTFGGGTKVEIKR
B12: Ab129 (antibody, human IgG4 S228P, kappa, V domains shown)
VH: QVQLVQSGAEVKKPGASVKVSCKVSGFNYPRSAIHWVRQAPGKGLEWMGGINPSGEATIYAQKFQGRVTMTEDTSTDTAYMELSSLKSEDTAVYYCARDSSPQWLVTAGVYFYGMDVWGQGTTVTVSS
VL: B2 VL with P27Q, S31N, Y32W, A50H, R53T, E90Q, L92S, F94T, L96W
B13: Ab134 (antibody, human IgG4 S228P, kappa, V domains shown)
VH: B4 VH with R103E, E106K
VL: B1 VL with G101P

The binders below were run against T1, recombinant human latent myostatin (human, UniProt O14793 24-375, biotinylated (in the Octet pH assay only)) (assay: cell-based or functional assay).

Binder | mTLL2 IC50 [nM]
B1 | 0.139
B2 | 9.22
B3 | 0.139

What follows are binders tested against T2, murine pro-myostatin (mouse, UniProt O08689 25-376, biotinylated (in the SPR assay)) (assay: SPR Biacore 8K, biotin-antigen captured).
T2 construct: also called proGDF8 (mouse); mouse pro-myostatin

Binder | Kd [nM] | koff [s⁻¹] | kon [M⁻¹ s⁻¹]
B1 | 0.0531 | 0.000156 | 2.93e+06
B4 | 0.083 | 0.00036 | 4.34e+06
B5 | 0.379 | 0.00221 | 5.83e+06
B6 | 0.057 | 0.000455 | 8.04e+06
B7 | 0.218 | 0.00183 | 8.42e+06
B2 | 0.748 | 0.000188 | 251000
B8 | 6.29 | 0.0208 | 3.31e+06
B9 | 3.05 | 0.00137 | 450000
B3 | 0.618 | 0.000772 | 1.25e+06
B10 | 3.26 | 0.000454 | 139000
B11 | 0.716 | 0.000655 | 914000
B12 | 4.24 | 0.000496 | 117000

What follows are binders tested against T3, cyno pro-myostatin (cynomolgus monkey, Biotinylated for capture in the SPR assay (site not stated). The native form is a disulfide-linked homodimer, partly furin-cleaved; one chain is given.) (assay: SPR Biacore 8K, biotin-antigen captured).
T3 construct: also called proGDF8 (cynomolgus); cynomolgus monkey pro-myostatin

Binder | Kd [nM] | koff [s⁻¹] | kon [M⁻¹ s⁻¹]
B1 | 0.0369 | 0.000103 | 2.8e+06
B4 | 0.065 | 0.000317 | 4.84e+06
B5 | 0.252 | 0.00154 | 6.09e+06
B6 | 0.054 | 0.000316 | 5.85e+06
B7 | 0.159 | 0.00102 | 6.39e+06
B2 | 0.601 | 0.000124 | 207000
B8 | 2.6 | 0.00908 | 3.49e+06
B9 | 3.13 | 0.00139 | 443000
B3 | 0.339 | 0.000539 | 1.59e+06
B11 | 0.814 | 0.000736 | 905000
B12 | 1.3 | 0.000534 | 411000

Each binder was assayed against T4, human pro-myostatin (human, UniProt O14793 24-375, biotinylated (in the SPR assay)) (assay: SPR Biacore 8K, biotin-antigen captured).
T4 construct: Disulfide-linked homodimer; also called proGDF8 (human)

Binder | Kd [nM] | koff [s⁻¹] | kon [M⁻¹ s⁻¹]
B1 | 0.04 | 0.000112 | 2.79e+06
B4 | 0.078 | 0.000339 | 4.37e+06
B5 | 0.261 | 0.00151 | 5.78e+06
B6 | 0.06 | 0.000319 | 5.34e+06
B7 | 0.177 | 0.00105 | 5.92e+06
B2 | 0.561 | 0.000122 | 217000
B8 | 1.74 | 0.00735 | 4.23e+06
B9 | 3.04 | 0.00123 | 406000
B3 | 0.394 | 0.000543 | 1.38e+06
B11 | 0.365 | 0.000463 | 1.27e+06
B12 | 2.2 | 0.000307 | 140000

These binders were tested against human GDF-11 (human, UniProt O95390 299-407, limits assumed) (assay: plate binding assay, OD 450 nm, one antibody concentration that is not given, on Hu-GDF-11 (method not described in the text)).
human GDF-11, sequence (O95390 299-407 limits assumed): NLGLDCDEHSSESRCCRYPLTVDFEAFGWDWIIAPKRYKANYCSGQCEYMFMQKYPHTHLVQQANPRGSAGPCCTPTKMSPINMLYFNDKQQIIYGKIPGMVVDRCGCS

Binder | binding result
B2 | no binding
B8 | no binding
B9 | no binding
B3 | no binding
B11 | no binding

These binders were tested against T4, human pro-myostatin (assay: cell-based or functional assay).

Binder | IC50 (nM) Pro + Furin [nM]
B4 | 0.251
B5 | 0.413
B6 | 0.195
B7 | 0.27
B2 | 1.08
B8 | 2.8
B9 | 6.01
B3 | 0.184
B11 | 0.774
B12 | 4.31

Target: T1, recombinant human latent myostatin
Assay: cell-based or functional assay
Remark: another data set of the same source

Binder | IC50 (nM) Latent + mTLL2 [nM]
B1 | 0.139
B4 | 0.128
B5 | 0.506
B6 | 0.135
B7 | 0.237
B13 | 0.631
B2 | 9.22
B8 | 3.3
B9 | 2.94
B3 | 0.139
B10 | 1.43
B11 | 1.03
B12 | 3.89

The binders below were run against mouse GDF-11 (mouse, UniProt Q9Z1W4 297-405, limits assumed) (assay: plate binding assay, OD 450 nm, one antibody concentration that is not given, on Mu-GDF-11 (method not described in the text)).
mouse GDF-11, sequence (Q9Z1W4 297-405 limits assumed): as the sequence (O95390 299-407 limits assumed) above

Binder | binding result
B2 | no binding
B8 | no binding
B9 | no binding
B3 | no binding
B11 | no binding

The binders below were run against T4, human pro-myostatin (assay: Ab KD, summary Table 11; method and antigen not stated there).

Binder | Kd [nM]
B1 | 0.04
B2 | 3.56
B3 | 0.683
